Data on two molecules can be found in patent US20120322135A1.

Test [1] has as its target rabies virus antibody (antigen), first of the two types used in the screening ELISA (AS 1) (rabies virus). Nature of the test: ELISA, 150 µl culture supernatant.
The target of test [2] is rabies virus antibody (antigen), second of the two types used in the screening ELISA (AS 2) (rabies virus). Nature of the test: ELISA, 150 µl culture supernatant. On the technique in general: An ELISA detects its analyte on a solid surface through an enzyme-linked reagent.
For test [3], the target named is rabies virus antibody (antigen), first of the two types used in the screening ELISA (AS 1) (rabies virus). As to the kind of experiment: ELISA, 10 ml culture cell breakage liquid.
Test [4] deals with rabies virus antibody (antigen), second of the two types used in the screening ELISA (AS 2) (rabies virus). Nature of the test: ELISA, 10 ml culture cell breakage liquid.

B1: LC23F1 (protein)
light: DIVMTQTPLSSPVTLGQPASISCRSSQSLVHSDGNTYLSWLQQRPGQPPRLLIYKISNRFSGVPDRFSGSGAGTDFTLKISRVEAEDVGIYYCMQGLQTPLTFGGGTKVDLKRTVAAPSVFIFPPSDEQLKSGTASVVCLLNNFYPREAKVQWKVDNALQSGNSQESVTEQDSKDSTYSLSSTLTLSKADYEKHKVYACEVTHQGLSSPVTKSFNRGEC
Take B1: the AS 1 (Antigen Specificity, ELISA signal) in test [1] is 0.249; in test [3], 0.821. Further, the results for the AS 2 (Antigen Specificity, ELISA signal) in test [2] and in test [4] were 0.219 and 2.95, respectively.

B2: LC22F6 (protein)
light: DIVMTQSPLSLPVTPGEPASISCRSSQSLLHSNGFNYLDWYLQKPGQSPQLLIYLGSTRASGVPDRFSGSGSGTDFTLRISRVEAEDVGVYFCMQAVQTPFTFGPGTRLDIKRTVAAPSVFIFPPSDEQLKSGTASVVCLLNNFYPREAKVQWKVDNALQSGNSQESVTEQDSKDSTYSLSSTLTLSKADYEKHKVYACEVTHQGLSSPVTKSFNRGEC
Turning to B2, the AS 1 (Antigen Specificity, ELISA signal) in test [1] is 0.275; in test [3] it was 0.5. The figures for the AS 2 (Antigen Specificity, ELISA signal) in test [2] and in test [4] were 0.175 and 2.77, respectively.
